Source: patent US20210292393A1 (published 2021)

Assays:
[1] = molecular target: SARS-CoV-2 full length spike protein, D614G mutant (SARS-CoV-2, UniProt P0DTC2 14-1273)
[2] = molecular target: SARS-CoV-2 full length spike protein, V367F mutant (SARS-CoV-2, UniProt P0DTC2 14-1273)
[3] = molecular target: SARS-CoV-2 full length spike protein, V367F mutant, expressed on the surface of CHO cells (SARS-CoV-2, UniProt P0DTC2 14-1273)
[4] = molecular target: SARS-CoV-2 full length spike protein, D614G mutant, expressed on the surface of CHO cells (SARS-CoV-2, UniProt P0DTC2 14-1273)

B1: antibody 272 (antibody, V domains shown)
VH: QVQLVQSGAEVKKPGASVKVSCKASGYTFTTYYMHWVRQAPGQGLEWMGIINPSGGSASYAQKFQGRVTMTRDTSTSTVYMELSSLRSEDTAVYYCARDHTLVNGDYEYYYGMDVWGQGTTVTVSS
VL: SYELTQPPSVSVSPGQTARITCSGDALPKQYAYWYQQKPGQAPVSVIYKDSERPSGIPERISGSSSGTTVTLTISGVQAEDEADYYCQSADSSGTYLVFGGGTKLTVL
[1]
  median fluorescence intensity, fold over isotype control: 79.7 fold over isotype
[2]
  median fluorescence intensity, fold over isotype control: 40.4 fold over isotype

B2: antibody 346 (antibody, V domains shown)
VH: EVQLVQSGAEVKKPGESLKISCKGSGYSFTSYWIGWVRQMPGKGLEWMGIIYPGDSDTRYSPSFQGQVTISADKSISTAYLQWSSLKASDTAMYYCARHGPQDGYSSSWYLDYWGQGTLVTVSS
VL: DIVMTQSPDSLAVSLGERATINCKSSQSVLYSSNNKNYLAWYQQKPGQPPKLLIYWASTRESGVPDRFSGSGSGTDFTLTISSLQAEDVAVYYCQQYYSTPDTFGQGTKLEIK
[3]
  median fluorescence intensity, fold over isotype control: 7.05 fold over isotype
[4]
  median fluorescence intensity, fold over isotype control: 8.57 fold over isotype

B3: antibody 355 (antibody, V domains shown)
VH: QVHLVESGGGVVQPGRSLRLSCAASGFTFSSFPMHWVRQAPGKGLEWVAVISYDGGDEHYTDSVEGRFTISRDNSLNTLYLQMSSLRLEDTAVYYCARDRYDSSGYYYVSDYWGQGTLITVSS
VL: SYELTQPPSVSVSPGQTARISCSGDALPKQYAYWYQQKPGQAPVLVIYKDSERPSGIPERFSGSSSGTTVTLTISGVQAEDEADYYCQSADSRGTDPWVFGGGTKLTVL
[3]
  median fluorescence intensity, fold over isotype control: 8.08 fold over isotype
[4]
  median fluorescence intensity, fold over isotype control: 20.3 fold over isotype

B4: antibody 338 (antibody, V domains shown)
VH: QVQLQESGPGLVKPSETLSLTCAVSGYSISSDYYWGWIRQPPGKGLEWIGSIYHSGSTYYNPSLKSRVTISIDTSKNQFSLKLSSVTAADTAVYYCARDPGNYDILTGIFDYWGQGTLVTVSS
VL: QSALTQPASVSGSPGQSITISCTGTSSDVGVYNYVSWYQQHPGKAPKLMIYDVTNRPSGVSNRFSGSKSGNTASLTISGLQAEDEADYYCSSYTSSSTLAVYVFGTGTKVTVL
[3]
  median fluorescence intensity, fold over isotype control: 33.2 fold over isotype
[4]
  median fluorescence intensity, fold over isotype control: 7.81 fold over isotype

B5: antibody 330 (antibody, V domains shown)
VH: QVQLVESGGGVVQPGRSLRLSCAASGFTFSSYAMHWVRQAPGKGLEWVAVISYDGSNKYYADSVKGRFTISRDNSKNTLYLQMNSLRAEDTAVYYCARDFQYYDFWSGYLTVSSPTSYYGMDVWGQGTTVTVSS
VL: NFMLTQPHSVSESPGKTVTISCTGSSGSIASNYVQWYQQRPGSAPTTVIYEDNQRPSGVPDRFSGSIDSSSNSASLTISGLKTEDEADYYCQSYDSSNVVFGGGTKLTVL
[3]
  median fluorescence intensity, fold over isotype control: 22.4 fold over isotype
[4]
  median fluorescence intensity, fold over isotype control: 56.5 fold over isotype

B6: antibody 312 (antibody, V domains shown)
VH: QVQLVQSGAEVKKPGASVKVSCKASGYTFTSYGISWVRQAPGQGLEWMGWISAYNGNTNYAQKLQGRVTMTTDTSTSTAYMELRSLRSDDTAVYYCARMLIAAAGTSRDYYGMDVWGQGTTVTVSS
VL: not shown
[3]
  median fluorescence intensity, fold over isotype control: 11.3 fold over isotype
[4]
  median fluorescence intensity, fold over isotype control: 24.5 fold over isotype

B7: antibody 302 (antibody, V domains shown)
VH: QVQLVQSGAEVRKPGASVKVSCKVSGYTLSELSMHWVRQAPGKGLEWMGGFDPEDGERMYAQKFQGRVTMTEDTSTDTAYMELSSLRSEDTAIYYCTTDLSYLWSGKLEPDYWYFALWGRGTLVTVSS
VL: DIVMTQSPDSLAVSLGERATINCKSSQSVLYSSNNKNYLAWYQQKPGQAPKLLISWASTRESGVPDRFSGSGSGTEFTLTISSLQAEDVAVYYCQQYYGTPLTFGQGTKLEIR
[1]
  median fluorescence intensity, fold over isotype control: 45.4 fold over isotype
[2]
  median fluorescence intensity, fold over isotype control: 26.5 fold over isotype

B8: antibody 305 (antibody, V domains shown)
VH: QVQLVESGGGVVQPGRSLRLSCAASGFTFSSYAMHWVRQAPGKGLEWVAVISYDGSNKYYADSVKGRFTISRDNSKNTLYLQMNSLRAEDTAVYYCAREQTSYDYVWGTLGAYYYYGMDVWGQGTTVTVSS
VL: SSELTQDPAVSVALGQTVRITCQGDSLRSYYASWYQQKPGQAPVLVIYGKNNRPSGIPDRFSGSSSGNTASLTITGAQAEDEADYYCNSRDSSGNHLVFGGGTKLTVL
[1]
  median fluorescence intensity, fold over isotype control: 78.9 fold over isotype
[2]
  median fluorescence intensity, fold over isotype control: 41 fold over isotype

B9: antibody 286 (antibody, V domains shown)
VH: QVHLVESGGGVVQPGKSLRLSCAGSGFIFSDFGMHWVRQSPGKGLEWVAVVSYDGSVTKYSDSFEGRFTISRDNSKNTLYLQMDSLRPDDTAIYYCAKGQGANLLHYWGKGILVTVSS
VL: DVVLTQSPLSLPVTLGQPASISCRSSESLVYTDGDTYLHWFHQRPGQSPRRLIYKVSNRDSGVPDRFSGSGSGTDFTLKISRVEAEDVGVYYCMQGTHWPFTFGPGTKVDIK
[1]
  median fluorescence intensity, fold over isotype control: 6.17 fold over isotype
[2]
  median fluorescence intensity, fold over isotype control: 28.2 fold over isotype

B10: antibody 298 (antibody, V domains shown)
VH: EVQLVESGGGLVQPGGSLRLSCAASGFTVSSNYMSWVRQAPGKGLEWVSVIYSGGSTYYADSVKGRFTISRDNSKNTLYLQMNSLRAEDTAVYYCAREEGEWEKDYYGMDVWGQGTTVTVSS
VL: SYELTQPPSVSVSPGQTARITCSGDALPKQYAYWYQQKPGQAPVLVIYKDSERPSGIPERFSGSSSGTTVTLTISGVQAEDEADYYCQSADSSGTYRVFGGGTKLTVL
[1]
  median fluorescence intensity, fold over isotype control: 66.8 fold over isotype
[2]
  median fluorescence intensity, fold over isotype control: 35.7 fold over isotype

B11: antibody 318 (antibody, V domains shown)
VH: QVQLVESGGGVVPPGRSLSLPCAASGFSFSAYAMHWLRQAPGKGLEWVAVISYDGTVKYVADSVRGRFTISRDNSNNTLYLQMTSLRSDDTAVYYCARDLGALAAAPTVYFVHWGQGTLVTVSS
VL: SYVLTQPPSVSVAPGKTATITCAGEDIGRKSVHWYQQKPGQAPVLVIFYYSDRPSGIPDRFSGSVSGNTATLTIGRVEAGDEADYFCQVWDRTTNHVIFGGGTKVTVL
[3]
  median fluorescence intensity, fold over isotype control: 40.3 fold over isotype
[4]
  median fluorescence intensity, fold over isotype control: 9.92 fold over isotype

B12: antibody 357 (antibody, V domains shown)
VH: QVQLVQSGAEVKKPGSSVKVSCKASGGTFSSYAISWVRQAPGQGLEWMGRIIPILGIANYAQKFQGRVTITADKSTSTAYMELSSLRSEDTAVYYCARGPIAVAGIGPWFDPWGQGTLVTVSS
VL: QSVLTQPPSVSAAPGQKVTISCSGSSSNIGNNYVSWYQQLPGTAPKLLIYDNNKRPSGIPDRFSGSKSGTSATLGITGLQTGDEADYYCGTWDSSLSAVVFGGGTKLTVL
[3]
  median fluorescence intensity, fold over isotype control: 28 fold over isotype
[4]
  median fluorescence intensity, fold over isotype control: 5.37 fold over isotype

B13: antibody 268 (antibody, V domains shown)
VH: QVQLQESGPGLVKPSQTLSLTCTVSGGSISSGSYYWSWIRQPAGKGLEWIGRIYTSGSTNYNPSLKSRVTISVDTSKNQFSLKLSSVTAADTAVYYCARELVGGLLGTIDYWGQGTLVTVSS
VL: DIQLTQSPSFLSASVGDRVTITCRASQGISSYLAWYQQKPGKAPKLLIYAASTLQSGVPSRFSGSGSGTEFTLTISSLQPEDFATYYCQQLNSYPYTFGQGTKLEIK
[1]
  median fluorescence intensity, fold over isotype control: 8.18 fold over isotype
[2]
  median fluorescence intensity, fold over isotype control: 8.9 fold over isotype

B14: antibody 314 (antibody, V domains shown)
VH: EVQLVESGGGLVKPGGSLRLSCAASGFTLSSYSMNWVRQAPGKGLEWVSCISSSSSYIYYADSVKGRFTISRDNAKNSLYLQMNSLRAEDTAVYYCASDPLDIVVVPAARDYYYYGMDVWGQGTTVTVSS
VL: not shown
[3]
  median fluorescence intensity, fold over isotype control: 19.6 fold over isotype
[4]
  median fluorescence intensity, fold over isotype control: 30.4 fold over isotype

B15: antibody 358 (antibody, V domains shown)
VH: QVQLVESGGGVVQPGRSLRLSCAASGFNLNSYAMHWVRQASGKGLEWVSLMSYDGSIKYYADSVKGRFTVSGDNSRNTLFLQMNSLRPDDSALYYCVRGGVSGPNSFDLWGQGTTVTVSS
VL: DVVMTQSPLSLPVTLGQPASISCRSSQSLVYSDGSTYVNWFQQRPGQSPRRLIYKVSNRDSGVPDRFSGSGSGTDFALKISRVEAEDVGVYYCMQGTHWPVTFGQGTKVEIK
[3]
  median fluorescence intensity, fold over isotype control: 38.4 fold over isotype
[4]
  median fluorescence intensity, fold over isotype control: 8.74 fold over isotype

B16: antibody 261 (antibody, V domains shown)
VH: QVQLVESGGGVVQPGRSLRLSCAASGFTFSSYAMHWVRQAPGKGLEWVAVISYDGSNKYYADSVKGRFTISRDNSKNTLYLQMNSLRAEDTAVYYCARDEAYYDILTGYINAPKNYYYYGMDVWGQGTTVTVSS
VL: DIQMTQSPSSLSASVGDRVTITCRASQGIRNDLGWYQQKPGKAPKRLIYAASSLQSGVPSRFSGSGSGTEFTLTISSLQPEDFATYYCLQHNSYPFTFGPGTKVDIK
[1]
  median fluorescence intensity, fold over isotype control: 87 fold over isotype
[2]
  median fluorescence intensity, fold over isotype control: 59.9 fold over isotype

B17: antibody 287 (antibody, V domains shown)
VH: QLQLQESGPGLVKPSETLSLTCTVSGGSISSSSYYWGWIRQPPGKGLEWIGSIFYSGSTYYNPSLKSRVTIFVDTSKNQFSLKLSSVTAADTAVYYCARFDYQVVDLTGFDYWGQGTLVTVSS
VL: DIQMTQSPSSLSASVGDRVTITCRASQGIRNDLGWYQQKPGKAPKRLIYAASSLQSGVPSRFSGSGSGTEFTLTIRSLQPEDFATYYCLQYNSYPLTFGGGTKVEIK
[1]
  median fluorescence intensity, fold over isotype control: 87.4 fold over isotype
[2]
  median fluorescence intensity, fold over isotype control: 60.9 fold over isotype

B18: antibody 356 (antibody, V domains shown)
VH: QVQLVQSGAEVKKPGASVKVSCKASGYTFTSYGISWVRQAPGQGLEWMGWISAYHGNTNYAQKLQGRVTMTTDTSTSTAYMELRSLRSDDTAVYYCARVGLWWLGHADAFDIWGQGTMVTVSS
VL: DIQMTQSPSSLSASVGDRVTITCRASQGIRNDLGWYQQKPGKAPKRLIYAASSLQSGVPSRFSGSGSGTEFTLTISSLQPEDFATYYCLQHNSYPLTFGGGTKVEIK
[3]
  median fluorescence intensity, fold over isotype control: 60.4 fold over isotype
[4]
  median fluorescence intensity, fold over isotype control: 90.8 fold over isotype

B19: antibody 311 (antibody, V domains shown)
VH: QVQLQESGPGLVKPSETLSLTCTVSGYSISSGYYWGWIRQPPGKGLEWIGSIYHSGSTYYNPSLKSRVTISVDTSKNQFSLKLSSVTAADTAVYYCAREETLGSSWYESYIDYWGQGTLVTVSS
VL: SYVLTQPPSVSVAPGKTARITCGGNNIGSKSVHWYQQKPGQAPVLVIYYDSDRPSGIPERFSGSNSGNTATLTISRVEAGDEADYYCQVWDSSSDHPRVFGGGTKLTVL
[3]
  median fluorescence intensity, fold over isotype control: 29.6 fold over isotype
[4]
  median fluorescence intensity, fold over isotype control: 59.7 fold over isotype
